The supplement of paper PMC9112550, “Optimization of the antimicrobial peptide Bac7 by deep mutational scanning” (BMC Biology, 2022)

tested on: Escherichia coli TOP10; assay: shrunken log2 fold change of peptide-encoding DNA abundance (4.5 h post-induction vs induction); higher = less antimicrobial activity (less host growth inhibition); conditions: time post-induction: 4.5 h; library: site-saturation at positions 5, 18, 19, 20
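Also: peptides expressed intracellularly from a pBAD plasmid library in pooled LB shake-flask culture, induced with 0.3% L-arabinose, DNA abundance read by NGS, three biological replicates, DESeq2 with apeglm shrinkage.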

| Sequence | shrunken log2 fold change |
| --- | --- |
| RRIRARPPRLPRPRPRPKYEPRP | 0.13 |
| RRIRVRPPRLPRPRPRPFPKPRP | -0.0266 |
| RRIRYRPPRLPRPRPRPWGTPRP | -0.0285 |
| RRIRFRPPRLPRPRPRPFYCPRP | -0.781 |
| RRIRIRPPRLPRPRPRPPKNPRP | -0.159 |
| RRIRARPPRLPRPRPRPSCVPRP | 0.157 |
| RRIRSRPPRLPRPRPRPVNDPRP | -0.389 |
| RRIRHRPPRLPRPRPRPPHFPRP | 0.297 |
| RRIRCRPPRLPRPRPRPKVNPRP | -0.542 |
| RRIRTRPPRLPRPRPRPCCHPRP | -0.0132 |
| RRIRNRPPRLPRPRPRPAQQPRP | 0.017 |
| RRIRIRPPRLPRPRPRPKKMPRP | 0.222 |
| RRIRDRPPRLPRPRPRPDTTPRP | 0.345 |
| RRIRPRPPRLPRPRPRPCCGPRP | -0.0386 |
| RRIRKRPPRLPRPRPRPEICPRP | 0.661 |
| RRIRARPPRLPRPRPRPIYLPRP | -0.152 |
| RRIRQRPPRLPRPRPRPHESPRP | -0.126 |
| RRIRLRPPRLPRPRPRPMPCPRP | -0.12 |
| RRIRIRPPRLPRPRPRPHDDPRP | -0.177 |
| RRIRGRPPRLPRPRPRPCECPRP | -0.0257 |
| RRIRNRPPRLPRPRPRPLFNPRP | -0.777 |
| RRIRDRPPRLPRPRPRPLHFPRP | -0.0881 |

| Sequence | shrunken log2 fold change |
| --- | --- |
| RRIRDRPPRLPRPRPRPRVPPRP | 0.523 |
| RRIRYRPPRLPRPRPRPPCPPRP | -0.141 |
| RRIRVRPPRLPRPRPRPSECPRP | 0.0274 |
| RRIRERPPRLPRPRPRPSLQPRP | 0.175 |
| RRIRWRPPRLPRPRPRPEQAPRP | -0.0201 |
| RRIRIRPPRLPRPRPRPNTKPRP | -0.202 |
| RRIRGRPPRLPRPRPRPYVRPRP | -0.51 |
| RRIRGRPPRLPRPRPRPVMGPRP | 0.289 |
| RRIRKRPPRLPRPRPRPLLTPRP | 0.652 |
| RRIRFRPPRLPRPRPRPCSQPRP | 0.0319 |
| RRIRQRPPRLPRPRPRPKRLPRP | 0.281 |
| RRIRFRPPRLPRPRPRPQLDPRP | 0.123 |
| RRIRCRPPRLPRPRPRPCICPRP | -0.105 |
| RRIRSRPPRLPRPRPRPKIHPRP | -0.0501 |
| RRIRDRPPRLPRPRPRPWFDPRP | -0.15 |
| RRIRHRPPRLPRPRPRPQKEPRP | -0.03 |
| RRIRNRPPRLPRPRPRPNWVPRP | 0.0876 |
| RRIRIRPPRLPRPRPRPIPMPRP | -0.705 |
| RRIRKRPPRLPRPRPRPKDVPRP | -0.018 |
| RRIRKRPPRLPRPRPRPQVCPRP | 0.138 |
| RRIRFRPPRLPRPRPRPFCKPRP | -0.374 |
| RRIRLRPPRLPRPRPRPYTMPRP | -0.923 |

| Sequence | shrunken log2 fold change |
| --- | --- |
| RRIRARPPRLPRPRPRPHFKPRP | 0.00608 |
| RRIRARPPRLPRPRPRPGVRPRP | 0.797 |
| RRIRERPPRLPRPRPRPPQIPRP | 0.15 |
| RRIRRRPPRLPRPRPRPESKPRP | 0.265 |
| RRIRFRPPRLPRPRPRPYSEPRP | -0.297 |
| RRIRYRPPRLPRPRPRPTASPRP | -0.389 |
| RRIRERPPRLPRPRPRPTCLPRP | -0.233 |
| RRIRARPPRLPRPRPRPGDPPRP | 0.971 |
| RRIRTRPPRLPRPRPRPDFYPRP | -0.241 |
| RRIRNRPPRLPRPRPRPGCVPRP | 0.634 |
| RRIRFRPPRLPRPRPRPTCNPRP | -0.178 |
| RRIRYRPPRLPRPRPRPGGVPRP | -0.332 |
| RRIRRRPPRLPRPRPRPKICPRP | 0.0561 |
| RRIRQRPPRLPRPRPRPCWNPRP | -0.13 |
| RRIRCRPPRLPRPRPRPHNYPRP | -0.831 |
| RRIRARPPRLPRPRPRPVTVPRP | 2.71 |
| RRIRGRPPRLPRPRPRPLWSPRP | 0.117 |
| RRIRERPPRLPRPRPRPCRNPRP | -0.269 |
| RRIRLRPPRLPRPRPRPLPVPRP | 0.0348 |
| RRIRTRPPRLPRPRPRPDDSPRP | -1.36 |
| RRIRHRPPRLPRPRPRPCERPRP | -0.0535 |
| RRIRKRPPRLPRPRPRPGAEPRP | 1.26 |

| Sequence | shrunken log2 fold change |
| --- | --- |
| RRIRVRPPRLPRPRPRPGGSPRP | 0.0297 |
| RRIRKRPPRLPRPRPRPTTVPRP | 0.331 |
| RRIRKRPPRLPRPRPRPSAEPRP | 0.787 |
| RRIRYRPPRLPRPRPRPRQHPRP | -0.571 |
| RRIRFRPPRLPRPRPRPNTAPRP | -0.986 |
| RRIRQRPPRLPRPRPRPISSPRP | 0.00776 |
| RRIRIRPPRLPRPRPRPEDQPRP | -0.000348 |
| RRIRERPPRLPRPRPRPLPWPRP | 0.0953 |
| RRIRARPPRLPRPRPRPAENPRP | 0.865 |
| RRIRIRPPRLPRPRPRPTSSPRP | -0.25 |
| RRIRKRPPRLPRPRPRPSGTPRP | 0.113 |
| RRIRYRPPRLPRPRPRPCEAPRP | -0.123 |
| RRIRYRPPRLPRPRPRPLMEPRP | -0.318 |
| RRIRTRPPRLPRPRPRPDINPRP | -0.151 |
| RRIRCRPPRLPRPRPRPKPLPRP | 0.12 |
| RRIRQRPPRLPRPRPRPHLVPRP | 0.00244 |
| RRIRIRPPRLPRPRPRPHLGPRP | 0.0798 |
| RRIRGRPPRLPRPRPRPCAWPRP | 0.167 |
| RRIRMRPPRLPRPRPRPNIDPRP | -0.764 |
| RRIRMRPPRLPRPRPRPGPLPRP | 0.532 |
| RRIRCRPPRLPRPRPRPFVPPRP | -0.139 |
| RRIRKRPPRLPRPRPRPCESPRP | -0.0138 |

| Sequence | shrunken log2 fold change |
| --- | --- |
| RRIRTRPPRLPRPRPRPPGQPRP | 0.622 |
| RRIRCRPPRLPRPRPRPGAKPRP | 0.309 |
| RRIRCRPPRLPRPRPRPEGAPRP | 0.766 |
| RRIRIRPPRLPRPRPRPIRMPRP | -0.346 |
| RRIRTRPPRLPRPRPRPFERPRP | -0.0347 |
| RRIRLRPPRLPRPRPRPRIVPRP | -0.175 |
| RRIRKRPPRLPRPRPRPFQIPRP | 0.0332 |
| RRIRARPPRLPRPRPRPNCCPRP | 0.131 |
| RRIRNRPPRLPRPRPRPGINPRP | -0.253 |
| RRIRQRPPRLPRPRPRPMQAPRP | 0.116 |
| RRIRVRPPRLPRPRPRPPVLPRP | -0.201 |
| RRIRKRPPRLPRPRPRPLKLPRP | 0.0766 |
| RRIRIRPPRLPRPRPRPAEHPRP | 0.0405 |
| RRIRERPPRLPRPRPRPGAVPRP | 1.45 |
| RRIRTRPPRLPRPRPRPGDFPRP | -0.093 |
| RRIRCRPPRLPRPRPRPIWSPRP | 0.162 |
| RRIRNRPPRLPRPRPRPHPHPRP | -0.576 |
| RRIRCRPPRLPRPRPRPWGFPRP | 0.248 |
| RRIRPRPPRLPRPRPRPKELPRP | 0.0936 |
| RRIRMRPPRLPRPRPRPYDIPRP | 0.0444 |
| RRIRPRPPRLPRPRPRPLWNPRP | -0.0917 |
